The series can be described thus: soluble on expression in E. coli; label from the status in PepcDB or PDB records.
In the case of “MPRKQRVVTTPSPPTSDEDEDMDFGSTSQQQQQQPTRNNDGLSGFKSITEIIAEADNNIPSEQIDKDIDSFSSYSDISDWRGIPKFFPSLSSLSRRASTYENWENRFKVVDYLVSCSGALKDSVSDYVADYFEKNESGEDHSVDVELVHAVSMFVILTQRLTVQLQLYVSKSIASANQQAKRGTGRGGRQVDLDDDIVKWKDIQRHRMINCLLELLELRVDTVAGTKKKAIQYVFAPDVMEKDFLLRFLDTVVQLLEDPENMARSSQQWISHYFRILKVLSADYGMTKDVANCLFTALSHSYLEAANTFPFIEPLVTLMKENGEGSGRIYQPLRNVLQLVICRVGNLYAGERAEKPPPKAFCMMVQSLAINVHDLMLQDITHVYRLLQNQHVNVRMSTLHALADMFSSSYLSQSLCDTFASRRLKREGIFKRLLAHTNDEATNVRSKAVSLLRNIMENRRIPEEFESCGLLSIVGSRLNDKSVQVRKSAIQFLTTFLDNNRHGHDFNREMHQLKLNAKCSELRNAEEPQSKAIQGAENAFRQNLFTLTAGVRVEVYDIFRRRYRVEPERSITDILTGLFSPGSGNRLVRYYVAQENFPFRDRIPSLRERRSDDMEDDDDDTVSLEDDDMTSLVSEVVKWVVAQAEEDYVTFKVQLTQMDDDQLLENEQEARDRNNQIMQLRAQVQQLINKMSIEQELSRCVTIALRCVLNGETAEIKEGIRFLTRCKLFEITGADDAIRSMCSLVWRPSADILNELIEAAEDMFISRLDGNEKASERDSSTVENLMKAMNGVTEKDRPSVEEVIYLLAATELVHVDSDKNKVPRKRRPIEANVINKLWMIALDMSHGINSRKIDALRILYPISRSERGIAEARSRLRVVQKKLMDPELAVDALRIISILGTPTKLENEQDAYSRPLFKIHQDDSLWKSIEKLFFYEIMKADDNPDRDWFGVIRLTITTILSLSMDVNVMLPKLASHFVYRTKRISDFFLFYCDQVDDATDDTRKKMAQRRREYWALTYCRVMEKLMAFIGEVAVQLNAYIQVTIPKLHTRYVSKMVDAEKNDANIREEPVRFLSDLEKSVAQRKTIFTVPQDTTPGATSNDLHHLVSVMCDKRLFVPNKLMGRLLPIVVYGMRCKIMPTRIRHAATVAYGKMMPLSAEISAFAAPSFFSAMTKSSSILLRCNLVAACCDFAFAQPTLFELFAQSLFRMSQDESPLARESTILVLSHLMSNDMIQTRGVLSEAARCICDPTRAVRDVAQSFFKELNSRTDTIIQLLPEFLYHLSNGNERMSFKSYKTVFEFLIQLLKDKPKASADSMIDRVCIKFSNTDMNDSETPKYLLVALAKFVQNDGGLHRLQDNWRHWSKFMCHPSVAKEYRMMVEHMHSTSKNDEFKSQCVELIDNINKIESEGLRKEDVAIGSSITKNKGRAKKNPTTMSGSSRTTSRAANSRRRAPPPAQSDEDDSDSDDAPAAPRSAARRKAKKSAVADDDSDSDEFMLDD”, the “soluble on expression in E. coli” value is on record as “not soluble”.

“MSGLEAKIAAIRDPDLQAELEAARGGFLFAPIVEHLLFRQRERDAARAQEGAQAEAREAMGRDRRRRDAVREVIESEPTGPENLQHLHSVLALCGLPYRDPGDARDFVREYGRNSLSLSAGRLKNPITGEMELQGLPYGPKARLVLLHLCTEAVRQRSPTIEVADSLSGFMKAMGFAVTGGERGTIGAFKEQLNRLAACSMQLGLWDGEGQASTLNVPPFRQLELWRRGDDGLVWQRTVSFHQDFYDSLIRHALPVDIRAARAFSGSARKLDLLFWTGYRLRALQRPLRLTWDNLHRQFGAENASLRSFRQAFKADLAGLLEVFPRLRIDLDEGGMLLHPADPGSLLVPPKLEHHHHHH”: the “soluble on expression in E. coli” value is “not soluble”.

On to “MGSSHHHHHHSQDPLVPRGSGSDYIIKEKTVLLQKKDSEGFGFVLRGAKAQTPIEEFTPTPAFPALQYLESVDEGGVAWRAGLRMGDFLIEVNGQNVVKVGHRQVVNMIRQGGNTLMVKVVMVTRHPDMDEA”, for which the “soluble on expression in E. coli” value was “soluble”.

In the case of “MNKGRVTQIMGPVVDVKFDGGKLPEIYNALTVKQSNENGTSINLTFEVALHLGDDTVRTVAMSSTDGLVRGTEVEDTGKAISVPVGDATLGRVFNVLGDAIDLDGEVPADVRRDPIHRQAPAFEELSTKVEILETGIKVVDLLAPYIKGGKIGLFGGAGVGKTVLIQELINNIAQEHGGISVFAGVGERTREGNDLYHEMSDSGVIKKTAMVFGQMNEPPGARQRVALTGLTMAEHFRDEQGQDVLLFIDNIFRFTQAGSEVSALLGRMPSAVGYQPTLATEMGQLQERITSTNKGSITSIQAVYVPADDYTDPAPATTFAHLDATTNLERRLTQMGIYPAVDPLASTSRALSPEIVGEEHYEVARQVQQTLQRYKELQDIIAILGMDELSEEDKLVVHRARRIQFFLSQNFHVAEQFTGQKGSYVPVKETVRGFKEILEGKYDDLPEDAFRLVGGIEEVIENAKKMMA”, the “soluble on expression in E. coli” value was “not soluble”.

“MILVGNGRLISQDSLNPYMEDGCVVINDNLIEDIGTTEEMKAKYPVHEFIDAGKKIIMPGLINSHMHIYSSFARGMAVPGKPSENFLEILNNLWWRLDKQLTLEDTKYSAYATYIECIKNGVTTVYDHHASPNAIEGSLFTISDVAKDLGIRTCLCYEVSDRDGGNTIQQGINENVNFIKYAQKDDTDMIKGMFGLHAAFTLSDDTLNKCASEMAGLDTGYHVHVAEGLADLQYNVDKYGKRVLERFNDFGVLKEKTIAVHCIYISAEEISFLNKTNTFVVHNPESNMGNAVGCSPAIELLKRGVTVGLGTDGYTSDMFESLKVANIIHKHHLKDPRVGFEESQTMLFDNNRKIAKAYYKNDLGVLKKGAYADVIVVDYIPHTPLTENTIGGHTIFGMSGRSVDTTIINGKVLMKDRKLINIDEESILAKSRELSQNLWNRI”: the “soluble on expression in E. coli” value was “not soluble”.

“MKKYNIPVEATLEVIGGKWKVVILCHLTKGTKRTSELKRSMPGITQKMLTQQLRELEDDGVIQRKVYNQVPPKVEYSLTDYGWSLESILDSLCSWGECHLEKEGNTSMLIAEGE”: the “soluble on expression in E. coli” value is “not soluble”.

Turning to “MGFHPRVPEGEVARRIAAVGAAIDRVIGERKRKISGQMIGRAVIRERRRCVWLERSEVPLDVIREGEAFVVRFANPDGSLGQPHQLLSSWMPGDPVLEHHHHHH”, the “soluble on expression in E. coli” value is recorded as “not soluble”.

Regarding “MGSDKIHHHHHHACDDNKDEFLDEFSTILSFRNCDEIEVEVYNTGENGEYQLIVNKSGAQLGTVTRASIDVMDKALLEIYNEQNGKDYQLYPEDCYVFNGDKQIEFGPNDTYQTRSVTLITDKILESNQQEGNFVIPFILQNSADSINAERKYVFLKPAVIVPNVAFEKTGYNLNIISDAMDANEIELNLPAVFSVDNKWNFSCTLEPDESLLTEYNEKNGVDYTMLSEEAYTLSNEGKILFTAGSKSASLTVTVKRNKLSYGNYVLPLKMTQCSSPYFEINPNKQSCLFGISYVPDESKLHPVTLSRGMTAIHPNREVEGKIDYMFDGNPDTYYHSDYLEEPGLPHWIQLNLDEPHTALMFEYQVRHNNNNGAPQRISVLGSMDGITFSKIMTIMEGFPTATKGTYKSPVLVGKEFKHIRLVVESTPAGNSFALAELKLHVN”, the “soluble on expression in E. coli” value is reported as “not soluble”.

In the case of “MGSDKIHHHHHHMRVALLMGGVSREREISLRSGERVKKALEKLGYEHTVFDVREDFLKKVDQLKSFDVVFNVLHGTFGEDVTLQAILDFLGIRYTGSDAFSSMICFDKLVTYRFLKGTVEIPDFVEIKEFMKTSPLGYPCVVKPRREGSSIGVFVCESDEEFQHALKEDLPRYGSVIVQKYIPGREMTVSILETEKGFEILPVLELRPKRRFYDYVAKYTKGETEFILPAPLNPSEERLVKEMALKAFVEAGCRGFGRVDGIFSDGRFYFLEINTVPGLTETSDLPASAKAGGIEFEELVEIILKSAFLKEGVRV”, the “soluble on expression in E. coli” value is on record as “not soluble”.

Regarding “MSLAKDKDTLDFIRNLCQKRHVCIQSSLAKVSSKKVNEKDVDKFLLYQHFSCNIRNIHHHQILAINRGENLKVLTVKVNISDGVKDEFCRWCIQNRWRPRSFARPELMKILYNSLNDSFKRLIYPLLCREFRAKLTSDAEKESVMMFGRNLRQLLLTSPVPGRTLMGVDPGYKHGCKLAIISPTSQILHTDVVYLHCGQGFREAEKIKTLLLNFNCSTVVIGNGTACRETEAYFADLIMKNYFAPLDVVYCIVSEAGASIYSVSPEANKEMPGLDPNLRSAVSIARRVQDPLAELVKIEPKHIGVGMYQHDVSQTLLKATLDSVVEECVSFVGVDINICSEVLLRHIAGLNANRAKNIIEWREKNGPFINREQLKKVKGLGPKSFQQCAGFIRINQDYIRTFCSQQTETSGQIQGVAVTSSADVEVTNEKQGKKKSKTAVNVLLKPNPLDQTCIHPESYDIAMRFLSSIGGTLYEVGKPEMQQKINSFLEKEGMEKIAERLQTTVHTLQVIIDGLSQPESFDFRTDFDKPDFKRSIVCLEDLQIGTVLTGKVENATLFGIFVDIGVGKSGLIPIRNVTEAKLSKTKKRRSLGLGPGERVEVQVLNIDIPRSRITLDLIRVLEGHHHHHH”, the “soluble on expression in E. coli” value was “soluble”.

For “MGSDKIHHHHHHMAEWAGGQGTQEQAVDKGPVTTDRPRPDRISPMNTARRLLRYLGHQRLPHVVVQIGCEILGAQRGALYLLDQNQEVTLIAQYPDDKDVQVPDDLDEARLSWHTLHDFLPQLVDCAHDHEARFHYCSGGDCWLTLSIPLQWEGQNIAVVQLSYKPDVTIDQTSMLGLVYEYAELAALTLVQHWRCIHPAHSSGTQAVPPSSLTNDYSFSSGVSLALAVSEAERARIARDLHDGARSAILGVQLHLEALRLACMQGDSLAIQDHLARGRAALDAIEQELSHIVRDLYPPQVGEADFPTVLVNLSERWSAATRIPVEYAFAPNIPVLETAQVIALYRIVQEALANCNRHAQASRVTISLACADDTLLLTVADNGRGGANLRGGGIGLLSMAQRAHAIGASFHIDSPPDQGTRIEVKLPLRRREPDVHVCSGDCHEGADE”, the “soluble on expression in E. coli” value is given as “not soluble”.

As to “MGSDKIHHHHHHLFNYFQLNDPKDFKHLLNMAGQDILINGKPARALITNTNLTESKDNRNITTLENIESGYLIDYDDGKWLVISEVSGKRYNKYKGIMQKCHNTLTVNIAGILHRVPYVVTNKVNLNIDVTYYLTVLENEIYILVANNTINSNIQLNDIYKIGRFNYKVISMDDISRPGLLLMKMKYSEEGQVLPNYSITILNGDTLTTDTATPVQLNVEQKDGETVLTNPLPMVFTSSDISIATVDSTGMVTPVSVGNVTITVSFESDTTVNDSIVITVEEVEVPETYTLELIGDTEIKQNQTKTYTAVKKNGLGDIVEGATFDFSIDPETTPADKYTLTVLDNTQCSIKANGATYYINLIATDRTDNSLTVSKRIWLKPLF”, the “soluble on expression in E. coli” value was “not soluble”.

Consider “MGSSGMGVDANGKPIKRQPTTNNNNKKAGNNSNNQKKGNNQNNKNNKNQNGGNRNQNRQHHQPPMMQMVPPFGPMGPGGPGGPGFMGPPNGNMNFFNGQNRRNGSGKNNGNRNGAPPSGYNGPSANNVGQGAIGNNMNGAQPFAGPEPSMEVPGFGKNSNIHELFGKMIWRKMEQINDAALVDQLQNRIMNLIHDALASQNDKQQQQQQQQHQQGFNQQRGMPFGGPGNQNGPFGNNAGFQRF”, for which the “soluble on expression in E. coli” value is “not soluble”.

“MKIVKDFSPKEYSQKLVNWLSDSCMNYPAEGFVIGLSGGIDSAVAASLAVKTGLPTTALILPSDNNQHQDMQDALELIEMLNIEHYTISIQPAYEAFLASTQSFTNLQNNRQLVIKGNAQARLRMMYLYAYAQQYNRIVIGTDNACEWYMGYFTKFGDGAADILPLVNLKKSQVFELGKYLDVPKNILDKAPSAGLWQGQTDEDEMGVTYQEIDDFLDGKQVSAKALERINFWHNRSHHKRKLALTPNF”: the “soluble on expression in E. coli” value was “soluble”.

As to “MSLFVEALKRQNPALISAALSLWQQGKIAPDSWVIDVDQILENGKRLIETARLYGIELYLMTKQFGRNPWLAEKLLALGYSGIVAVDYKEARVMRRAGLPVAHQGHLVQIPCHQVADAVEQGTDVITVFTLDKAREVSAAAVKAGRIQSVLLKVYSDDDFLYPGQESGFALKVLPEIVAEIQNLPGLHLAGLTHFPCLLWDEAVGKVLPTPNLHTLIQARDQLAKSGIALEQLNAPSATSCTSLPLLAQYGVTHAEPGHALTGTIPANQQGDQPERIAMLWLSEISHHFRGDSYCYGGGYYRRGHAQHALVFTPENQKITETNLKTVDDSSIDYTLPLAGEFPVSSAVVLCFRTQIFVTRSDVVLVSGIHRGEPEIVGRYDSLGNSLGAEGHHHHHH”, the “soluble on expression in E. coli” value was “soluble”.

The values are drawn from the DeepSol protein solubility set.
